The values below come from PMC9018835, “Regulated interaction of ID2 with the anaphase-promoting complex links progression through mitosis with reactivation of cell-type-specific transcription” (Nature Communications, 2022).

Assay [1] has as its target core APC (endogenous, HeLa) (human (endogenous in HeLa)). Kind of assay: cell-based or functional assay.
In assay [2] the target is T1, HA-CDH1, in vitro translated (UniProt Q9UM11 1-496).
T1 construct: CDH1/FZR1, generated by PCR and cloned into pcDNA3; also called in vitro translated CDH1; source: in vitro translated
T1 sequence (Q9UM11 whole entry): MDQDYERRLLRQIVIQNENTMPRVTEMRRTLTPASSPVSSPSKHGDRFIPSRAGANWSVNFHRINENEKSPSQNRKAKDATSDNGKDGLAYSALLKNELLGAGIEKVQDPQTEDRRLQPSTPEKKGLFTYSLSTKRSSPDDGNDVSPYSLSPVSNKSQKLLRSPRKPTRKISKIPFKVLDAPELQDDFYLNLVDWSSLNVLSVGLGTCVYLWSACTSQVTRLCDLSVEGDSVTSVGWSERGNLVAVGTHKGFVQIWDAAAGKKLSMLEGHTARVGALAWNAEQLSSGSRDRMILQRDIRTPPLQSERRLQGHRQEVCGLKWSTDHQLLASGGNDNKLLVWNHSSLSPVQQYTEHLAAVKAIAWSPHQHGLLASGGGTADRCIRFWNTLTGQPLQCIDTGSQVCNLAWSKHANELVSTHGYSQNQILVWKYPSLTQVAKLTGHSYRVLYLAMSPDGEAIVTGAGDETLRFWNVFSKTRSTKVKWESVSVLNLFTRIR
Kind of assay: pull-down; GST-ID2, with or without prior in vitro phosphorylation by CDK1-Cyclin B, incubated with APC immunopurified through FLAG-APC3 from HeLa cells and activated by in vitro translated HA-CDC20 or CDH1; western blot (Fig. 3h). The conditions noted are these: both partners purified. Background: A western blot detects proteins with antibodies after separation by electrophoresis.

Where a chain is given by its changes, count along the chain named. Names and notes keep the numbering of the source.

B1: FLAG-ID2-S5D (natural protein, UniProt Q02363 1-134, looked up)
chain: MKAFDPVRSVRKNSLSDHSLGISRSKTPVDDPMSLLYNMNDCYSKLKELVPSIPQNKKVSKMEILQHVIDYILDLQIALDSHPTIVSLHHQRPGQNQASRTPLTTLNTDISILSLQASEFPSELMSNDSKALCG
Take B1: in assay [1], the “half-life of ID2-S5D in transiently transfected HeLa cells treated with cycloheximide, against ID2 wild type” value is roughly 5 fold.

B2: phospho-S5-GST-ID2 (natural protein, UniProt Q02363 1-134, looked up)
chain: B1 chain with D5S
modifications: phosphoserine at 5 (in vitro phosphorylation by Cyclin B-CDK1)
notes: also called CDK1 phosphorylated GST-ID2; source: E. coli BL21(DE3), GST fusion; phosphorylated in vitro by CDK1-Cyclin B
In the case of B2, the binding result in assay [2] is “binds”.

B3: GST-ID2 wild type (natural protein, UniProt Q02363 1-134, looked up)
chain: B1 chain with D5S
notes: also called GST-ID2 WT; recombinant GST-ID2; source: E. coli BL21(DE3), purified GST fusion, immobilised on glutathione sepharose 4B
Turning to B3, in assay [2], the binding result is reported as “binds”.
